{"source": "paper PMC4514859", "test_system": "MtlR (Pseudomonas fluorescens DSM 50106)", "experiment": "EMSA", "details": "1x shift buffer A: 10 mM Tris-HCl pH 7.0, 5% glycerol, 1 mM TCEP, 50 ug/ml salmon sperm DNA, 4% TEG, 2 mM D-mannitol (absent in buffer B), 30 min on ice, gel …"}
{"substance": "PCR 210 (wild-type PmtlE operator)", "values": [{"measurement": "Kd", "setting": "with D-mannitol, kdiss 1.1e-4 s-1, t1/2 112 min", "value": 30.8, "unit": "nM"}, {"measurement": "Kd", "setting": "without mannitol, kdiss 1.2e-4 s-1, t1/2 99 min", "value": 32.6, "unit": "nM"}]}
